Test results published in publication PMC5701185, “Evidence for PII with NAGK interaction that regulates Arg synthesis in the microalga Myrmecia incisa in response to nitrogen starvation” (Scientific Reports, 2017).

Tests used:
[1] = target: recombinant MiPII fused to the His-tag (pET-PII) (Myrmecia incisa); test: co-IP; purified recombinant MiPII (200 ug) and MiNAGK (400 ug) in 1 mL 50 mM Tris-HCl pH 7.5, 100 mM KCl, with ATP (3 mM) and Mg2+ (6 mM), with or without 2-OG (5 mM); 1 h at room temperature; precipitated with rabbit anti-MiPII polyclonal antibody and protein A Sepharose; SDS-PAGE, Coomassie staining, band intensity by ImageJ
[2] = target: recombinant MiNAGK fused to the His-tag (pET-NAGK) (Myrmecia incisa)
MiPII with MiNAGK [3] = target: T1, MiPII with MiNAGK (Lobosphaera incisa, UniProt A0A2R4H197); test: hydroxamate-Fe([…]+) NAGK assay, […] nm; assay type: biochemical; details: read-out: half-maximal effective concentration
T1 construct: gene glnB; same proteins as P2; effector site on PII (209-aa precursor, 52-aa signal peptide removed, N-terminal His-tag kept, 21-kD band); read-out NAGK activity; with Acetylglutamate kinase, chloroplastic

MiPII with MiNAGK [4] = target: T1, MiPII with MiNAGK; test: hydroxamate-Fe([…]+) NAGK assay, […] nm; assay type: biochemical; details: read-out: % inhibition at 1 mM

T1 sequence (A0A2R4H197 53-209): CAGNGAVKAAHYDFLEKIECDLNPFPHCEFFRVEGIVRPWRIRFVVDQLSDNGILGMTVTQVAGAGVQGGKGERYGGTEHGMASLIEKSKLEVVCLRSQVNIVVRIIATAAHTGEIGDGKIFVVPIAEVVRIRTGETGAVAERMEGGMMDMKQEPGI
T1 sequence (A0A2R4H194 60-359 partner): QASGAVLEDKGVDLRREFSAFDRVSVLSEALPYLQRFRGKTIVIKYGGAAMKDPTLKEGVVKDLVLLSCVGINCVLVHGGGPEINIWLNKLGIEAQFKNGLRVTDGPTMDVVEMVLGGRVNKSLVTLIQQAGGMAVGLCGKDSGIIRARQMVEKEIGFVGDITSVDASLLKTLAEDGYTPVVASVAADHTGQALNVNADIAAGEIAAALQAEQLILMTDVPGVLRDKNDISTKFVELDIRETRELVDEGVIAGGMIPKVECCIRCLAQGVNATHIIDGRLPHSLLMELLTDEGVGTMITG
recombinant MiPII fused to the His-tag (pET-PII) (Myrmecia incisa), sequence (main, as listed by the source): as the sequence (A0A2R4H197 53-209) above
recombinant MiNAGK fused to the His-tag (pET-NAGK) (Myrmecia incisa), sequence (main, as listed by the source): as the sequence (A0A2R4H194 60-359 partner) above

Compound: recombinant MiNAGK fused to the His-tag (pET-NAGK) (enzyme)
- intensity of the stained MiNAGK band in the precipitate with 2-OG relative to without 2-OG [1]: 0.65 times

Compound: recombinant MiPII fused to the His-tag (pET-PII) (natural protein)
- specific activity of recombinant MiNAGK with MiPII (10 ug) and Gln (10 mM), 2-OG from 0 to 4 mM; value at 1 mM 2-OG [2]: 30%

Compound: NC(=O)CC[C@H](N)C(=O)O [Gln]
- EC50 (MiPII with MiNAGK [3]): ~3 mM

Compound: O=C(O)CCC(=O)C(=O)O [2-OG]
- inhibition at 1000 µM (MiPII with MiNAGK [4]): ~30%
